The values that follow come from PMC6222848, “Spatial Overlap of Claudin- and Phosphatidylinositol Phosphate-Binding Sites on the First PDZ Domain of Zonula Occludens 1 Studied by NMR” (Molecules : A Journal of Synthetic Chemistry and Natural …, 2018).

As usually defined, the Kd is the free concentration of one partner at which half of the binding sites on the other are occupied at equilibrium, for simple one-to-one binding. A higher Kd goes with weaker binding.

Assay [1] has as its target T1, mouse ZO-1(PDZ1) Arg28 Ala-substituted mutant (mouse, UniProt P39447 18-110, Arg28 Ala-substituted).
T1 construct: zonula occludens 1 (ZO-1), mouse, first PDZ domain, residues 18-110, with Arg28 changed to Ala; Made by mutagenesis of the whole expression plasmid of ZO-1(PDZ1); no cleavage of GST is described for the mutants; also called Arg28 mutation; source: purified with glutathione-Sepharose, dialyzed
T1 sequence (looked up): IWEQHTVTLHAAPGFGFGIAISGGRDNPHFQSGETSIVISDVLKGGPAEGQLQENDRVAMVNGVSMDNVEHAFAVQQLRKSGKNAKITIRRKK
Kind of assay: SPR; BIACORE-3000; Trx-CLD3 peptide immobilized on a CM5 chip, PDZ domain as analyte (0 to 100 ug/mL), 20 uL/min; 10 mM HEPES pH 7.4, 150 mM NaCl, 3 mM EDTA, 0.005% Surfactant P20; KD by 'Affinity from steady-state'; no phytic acid. The following applies: both partners purified.

For assay [2], the target named is T2, GST-tagged mouse ZO-1(PDZ1) (residues 18–110) (mouse, UniProt P39447 18-110).
T2 construct: zonula occludens 1 (ZO-1), mouse, first PDZ domain, residues 18-110; The methods say that the GST fusion proteins were used for the SPR analysis; also called first PDZ domain of zonula occludens 1; wild-type; source: E. coli BL21 (DE3), purified (glutathione-Sepharose FF), dialyzed
T2 sequence (looked up): T1 sequence (looked up) with A11R
The description is as above. Particulars: both partners purified.

Substitutions are numbered along the chain they refer to.

B1: His6-tagged thioredoxin (Trx) fusion protein of mouse CLD-3 C-terminus (Trx-CLD3, residues 210–219) (domain or fragment, UniProt Q9Z0G9 210-219, looked up)
chain: GTAYDRKDYV
notes: claudin-3 (CLD-3), mouse, C-terminus, residues 210-219; also called Trx-CLD3 peptide; CLD-3 peptide; source: E. coli BL21 (DE3), purified (Ni2+-chelating-Sepharose), dialyzed
For the molecule B1, the binding result in assay [1] is “binds”. Also, binding in assay [2] was put at a Kd of 170 nM.
